The values that follow are results of earlier work, collected in patent publication US20230233498A1, “COMPOSITIONS AND METHODS FOR THE TREATMENT OF COVID-19” (PROTHIONE, LLC, priority 2020, published 2023).

One data set deals with EBOV replicon system. To be noted: transient expression.
For the next data set, the system named is Ebola virus (EBOV). To be noted: cells expressing NZAP-Zeo or full-length ZAP.

B1: ZAP: zinc finger antiviral protein (protein, UniProt Q7Z2W4 2-902, looked up)
Zinc finger CCCH-type …: ADPEVCCFITKILCAHGGRMALDALLQEIALSEPQLCEVLQVAGPDRFVVLETGGEAGITRSVVATTRARVCRRKYCQRPCDNLHLCKLNLLGRCNYSQSERNLCKYSHEVLSEENFKVLKNHELSGLNKEELAVLLLQSDPFFMPEICKSYKGEGRQQICNQQPPCSRLHICDHFTRGNCRFPNCLRSHNLMDRKVLAIMREHGLNPDVVQNIQDICNSKHMQKNPPGPRAPSSHRRNMAYRARSKSRDRFFQGSQEFLASASASAERSCTPSPDQISHRASLEDAPVDDLTRKFTYLGSQDRARPPSGSSKATDLGGTSQAGTSQRFLENGSQEDLLHGNPGSTYLASNSTSAPNWKSLTSWTNDQGARRKTVFSPTLPAARSSLGSLQTPEAVTTRKGTGLLSSDYRIINGKSGTQDIQPGPLFNNNADGVATDITSTRSLNYKSTSSGHREISSPRIQDAGPASRDVQATGRIADDADPRVALVNDSLSDVTSTTSSRVDDHDSEEICLDHLCKGCPLNGSCSKVHFHLPYRWQMLIGKTWTDFEHMETIEKGYCNPGIHLCSVGSYTINFRVMSCDSFPIRRLSTPSSVTKPANSVFTTKWIWYWKNESGTWIQYGEEKDKRKNSNVDSSYLESLYQSCPRGVVPFQAGSRNYELSFQGMIQTNIASKTQKDVIRRPTFVPQWYVQQMKRGPDHQPAKTSSVSLTATFRPQEDFCFLSSKKYKLSEIHHLHPEYVRVSEHFKASMKNFKIEKIKKIENSELLDKFTWKKSQMKEEGKLLFYATSRAYVESICSNNFDSFLHETHENKYGKGIYFAKDAIYSHKNCPYDAKNVVMFVAQVLVGKFTEGNITYTSPPPQFDSCVDTRSNPSVFVIFQKDQVYPQYVIEYTEDKACVIS
Consider B1, for which the “decreased activity of an EBOV replicon system” value with EBOV replicon system is listed as “up to 95%”. Further, the EBOV inhibited result with Ebola virus (EBOV) is listed as “up to 4 log units”.
